Assay results as given in patent US20220144922A1 (Adimab, published 2022).

Columns and labels:
[1] = biological target: T1, postfusion RSV F ectodomain, subtype B (respiratory syncytial virus subtype B); assay: BLI, IgG on sensor
T1 construct: extracellular domain; also called Postfusion subtype B

[2] = biological target: T2, postfusion RSV F ectodomain (F ΔFP), subtype A (respiratory syncytial virus subtype A, UniProt P03420 26-109; P03420 147-524); assay: BLI, IgG on sensor
T2 construct: extracellular domain; also called Postfusion subtype A

[3] = biological target: T3, prefusion-stabilized RSV F ectodomain (DS-Cav1), subtype B (respiratory syncytial virus subtype B); assay: BLI, IgG on sensor
T3 construct: extracellular domain; also called Prefusion subtype B

[4] = biological target: RSV F protein of subtype B strain 18537, on virus (respiratory syncytial virus subtype B …, UniProt P13843 26-574); assay: cell-based or functional assay
[5] = biological target: T4, RSV F protein of subtype A strain A2, on virus (respiratory syncytial virus subtype A …, UniProt P03420 26-574); assay: cell-based or functional assay
[6] = biological target: HMPV F protein (NL/1/00, A1 sublineage), on virus (human metapneumovirus); assay: cell-based or functional assay
[7] = biological target: T4, RSV F protein of subtype A strain A2, …; assay: cell-based or functional assay; remark: listed apart in the source

B1: ADI-15601 (antibody, V domains shown)
VH: EVQLLETGGGLVKPGGSLRLSCEATGFTFSDFAMSWVRQAPGKGLEWVSLIKSSDYPYYADSVRGRFTISRDNSKNTLYLRMDNLRADDTAVYYCAKDADFWSGEAYNGGYNFDSWGQGTLVTVSS
VL: EIVLTQSPATLSVSPGERATLSCRASQSIGTNLAWYQQKPGQAPRLLIFGASTRATGIPARFTGSGSGTEFTLTIGSLQSEDFAVYYCQQYNQWPPITFGGGTKVEIK
notes: IgG
Kd [1]: 0.193 nM
Kd [2]: 0.207 nM
Kd [3]: 0.329 nM
Neut IC50 (ug/ml) subtype B [4]: 0.084 µg/mL
Neut IC50 (ug/ml) subtype A [5]: 0.046 µg/mL

B2: ADI-15593 (antibody, V domains shown)
VH: QVQLVQSGGGLVRPGGSLRLSCAASGFMFSTYSMNWLRTVPGKGLEWVSSISGSSSHIYYADSVKGRFTISRDNTKNSLYLQMNSLRPEDTALYYCARYFGDYSGLGNYYYYGMDVWGQGTTVTVSS
VL: DIVMTQSPVSLPVTPGEPASISCRSSQSLLHSNGNNYLDWYLQRPGQSPQLLIYLGSNRASGVPDRFSGSGSGTDFTLRISRVEAEDVGVYYCMQALQTPRFGGGTKVEIK
notes: IgG; also called Antibody Number 160
Kd [1]: 0.761 nM
Kd [2]: 0.507 nM
Kd [3]: 3.95 nM
Neut IC50 (ug/ml) subtype B [4]: > 10 µg/mL
Neut IC50 (ug/ml) subtype A [5]: > 10 µg/mL

B3: ADI-15611 (antibody, V domains shown)
VH: QVQLVESGAEVKKPGSSVKVSCKASGGTFGRDSISWVRQAPGQGLEWMGGINPIFHTSHYAQKFQGRVTITADESTSTAYMELGNLRSEDTAMYYCARVPPPRGHCESTSCLWGTYFAFWGQGTLVTVSS
VL: ETTLTQSPATLSLSPGERATLSCRASQRVRSYLAWYQQKPGQAPRLLIYDASIRATGIPARFSGSGSGADFTLTISSLEPEDFAVYYCQLRDYWPPTWTFGQGTKVEIK
notes: IgG
Kd [1]: 0.609 nM
Kd [2]: 0.626 nM
Kd [3]: 4.34 nM
Neut IC50 (ug/ml) subtype B [4]: 0.432 µg/mL
Neut IC50 (ug/ml) subtype A [5]: 0.15 µg/mL

B4: ADI-15600 (antibody, V domains shown)
VH: EVQLVESGGGLIQPGGSLRLSCAVSGFSVSSNYISWVRQPPGKGLEWVSVSYSSGVTDYADSVKGRFTTSRDNSKNTLYLQMNSLRGEDTAVYYCARELVPNFYESHGYFSVWGQGTLVTVSS
VL: DIVMTQSPGTLSLSPGERATLSCRASQRVDSSYLAWYQQKPGQAPRLLIYGGSSRATGIPDRFSGSGSGTDFTLTISRLEPEDFALYYCQQYGFSQTFGQGTKVEIK
notes: IgG; also called Antibody Number 166
Kd [1]: 0.148 nM
Kd [2]: 0.162 nM
Kd [3]: 1.42 nM
Neut IC50 (ug/ml) subtype B [4]: 0.958 µg/mL
Neut IC50 (ug/ml) subtype A [5]: 1.31 µg/mL

B5: ADI-15647 (antibody, V domains shown)
VH: QVQLVQSGAEVKKPGSSVRVSCEASGGTFSTYAISWVRQAPGLGLEWMGGIHPISGTANYAQSFQDRLTITVDKSTSTAYMDLSSLRSEDTAIYYCARVGLGRTWIYDTMGYLDYWGQGTLVTVSS
VL: EIVLTQSPATLSLSPGERVTLSCRASQSVNDYLAWYQQKPGQAPRLLIYDASNRATGIPARFSGSGSGTDFTLTISSLEPEDFAVYYCQHRTNWPSLTFGGGTKVEIK
Neut IC50 (ug/ml) subtype B [4]: > 10 µg/mL
Neut IC50 (ug/ml) subtype A [5]: > 10 µg/mL
HMPV-A1 IC50 [6]: 20.3 µg/mL
RSV-A2 IC50 [7]: > 25 µg/mL

B6: ADI-15657 (antibody, V domains shown)
VH: QVQLVQSGTEVKKPGSSVKVSCKASGGTFSSYAISWVRQAPGQGLEWMGGIHPTSGPANYAQKFQDRVTITVDKSTSTVYMDLSSLRSEDTAVYYCARVGVGRTWIYDTMGYLDFWGQGTLVTVSS
VL: EIVMTQSPATLSLSPGERATLSCRASQSVSDYLAWYQQKPGQAPRLLIYDASNRATGIPARFSGSGSGTDFTLTITSLEPEDFAVYYCQHRSDWPSLTFGGGTKLEIK
Neut IC50 (ug/ml) subtype B [4]: > 10 µg/mL
Neut IC50 (ug/ml) subtype A [5]: > 10 µg/mL
HMPV-A1 IC50 [6]: 11.9 µg/mL
RSV-A2 IC50 [7]: > 25 µg/mL

B7: ADI-15665 (antibody, V domains shown)
VH: QVQLVQSGPEVKRPGSSVKVSCKASGDTFNNYAISWVRQAPGQGLEWMGGIHPTTATPNYAQKFQGRVVISADKSTSTAYLDLSRLRSEDTAMYYCARVGVGRTWVYDIMGYLDYWGQGTLVTVSS
VL: EIVLTQSPATLSLSPGERATLSCRASQSVSDYLAWYQQRPGQAPRLLIYDASTRATGIPDRFSGGGSGTDFTLTISSLEPEDFAVYYCQHRNNWPSLTFGGGTKVEIK
Neut IC50 (ug/ml) subtype B [4]: 6.25 µg/mL
Neut IC50 (ug/ml) subtype A [5]: 12.7 µg/mL
HMPV-A1 IC50 [6]: 13.5 µg/mL
RSV-A2 IC50 [7]: 12.7 µg/mL

B8: ADI-15588 (antibody, V domains shown)
VH: EVQLVESGPGLVKPSETLSLICRVFGGSVRRGDYNWNWIRQPPGKGLEWIGYIDYSGTTKYNPSLKSRVTISEDTSRNQFSLELRSVTAADTAMYYCARDVGSTPYNYYGMDVWGQGTTVTVSS
VL: EIVLTQSPGTLSLSPGERATLSCRASQTIKNNYLAWYQQKPGQAPRLLMYGVSSRPTGIPDRFSGSGSGTDFSLTIDRLEPEDFAVYYCQQFGRSPELTFGGGTKVEIK
notes: IgG; also called Antibody Number 155
Kd [1]: 0.953 nM
Kd [2]: 0.353 nM
Kd [3]: 0.427 nM
Neut IC50 (ug/ml) subtype B [4]: 0.234 µg/mL
Neut IC50 (ug/ml) subtype A [5]: 0.094 µg/mL

B9: ADI-15582 (antibody, V domains shown)
VH: QVQLVQSGGEVKKPGASVKVSCKASGYTFISYGITWVRQAPGQGPEWMGWISPYNGDTNYAQKLQGRVTMTTDTSTTTAYMELRSLRSDDTAIYYCARRYDILTGGGWFDSWGQGTLVTVSS
VL: DIVMTQSPSSLSASVGDRVTINCRASQSIISYLNWYQQKPGKAPELLIYAASSLQSGVPSRFSGSGSGTEFTLTISSLQPEDFATYYCQQSYSTPLSFGPGTKVEIK
notes: IgG
Kd [1]: 0.295 nM
Kd [2]: 0.385 nM
Kd [3]: 2.32 nM
Neut IC50 (ug/ml) subtype B [4]: 6.74 µg/mL
Neut IC50 (ug/ml) subtype A [5]: 2.22 µg/mL

B10: ADI-15614 (antibody, V domains shown)
VH: EVQLLESGGGLVKPGGSLRLSCAASGFTISGYNMFWVRQPPGKGLEWVSSITAGSSYLNYADSVKGRFIVSRDNAKNSLYLQMNSLRAEDTAVYFCARAPLLPAMMDLWGQGTTVTVSS
VL: QSVLTQPPSVSGAPGQRVTISCTGSSSNIGAGYDVHWYQQLPGTAPKLLIYTNNNRPSGVPDRFSGSKSGTSASLAITGLQAEDEADYYCQSYDRSLNGYVFGTGTKLTVL
notes: IgG
Kd [3]: 0.466 nM
Neut IC50 (ug/ml) subtype B [4]: 0.059 µg/mL
Neut IC50 (ug/ml) subtype A [5]: 0.027 µg/mL
HMPV-A1 IC50 [6]: 0.22 µg/mL
RSV-A2 IC50 [7]: 0.03 µg/mL

B11: ADI-15556 (antibody, V domains shown)
VH: QVQLVQSGAEVKKPGSSVKVSCKASGGNVNIYGISWVRQAPGQGLEWMGGIIPIYDTTKYAQKFQDRVTITADKSTSTAYMELSSLRSEDTAVYFCARDLDYDILTGYSVNYYYYGMDVWGQGTTVTVSS
VL: QSVLTQPPSVSGAPGQRVTISCTGSSSNIGAGYDVHWYQQLPGTAPKLLIYGNINRPSGVPDRFSGSKSGTSASLAITGLQAEDEADYYCQSCDSSLSGWVFGGGTKLTIL
notes: IgG
Kd [1]: 0.19 nM
Kd [2]: 0.247 nM
Kd [3]: 2.2 nM
Neut IC50 (ug/ml) subtype B [4]: 0.081 µg/mL
Neut IC50 (ug/ml) subtype A [5]: 0.055 µg/mL

B12: ADI-15623 (antibody, V domains shown)
VH: EVQLLESGGGLVKPGGSLRLSCAASGFTIGGYNMFWVRQPPGKGLEWVSSITAGSSYLNYADSVKGRFIVSRDNAKNSLYLQMNSLRAEDTAVYFCARAPLLPAMMDLWGQGTTVTVSS
VL: QSVVTQPPSVSGAPGQRVTISCTGSSSNIGAGYDVHWYQQLPGTAPKLLIYTNNNRPSGVPDRFSGSKSGTSASLAITGLQAEDEADYYCQSYDRSLNGYVFGTGTQLTVL
notes: IgG; also called Antibody Number 188
Kd [3]: 0.435 nM
Neut IC50 (ug/ml) subtype B [4]: 0.108 µg/mL
Neut IC50 (ug/ml) subtype A [5]: 0.054 µg/mL
HMPV-A1 IC50 [6]: 0.37 µg/mL
RSV-A2 IC50 [7]: 0.05 µg/mL

B13: ADI-15599 (antibody, V domains shown)
VH: EVQLLESGGGLVQPGRSLRLSCSGSGFTFGDYALSWVRQAPGKGLEWVGFIRSKAYGGTTEYAASVKGRFTISRDDSKSIAYLQMNSLKTEDTAVYYCTMAVVVPGATDAFDIWGQGTMVTVSS
VL: NFMLTQPHSVSESPGKTVTISCTRSSGSIASDYVQWFQQRPGSSPATVIYQDNQRPSGVPDRFSGSIDTSSNSASLTISGLKTEDEADYYCHSYDSSNPWVFGGGTKLTVL
notes: IgG; also called Antibody Number 165
Kd [1]: 0.652 nM
Kd [2]: 1.23 nM
Kd [3]: 0.246 nM
Neut IC50 (ug/ml) subtype B [4]: 0.378 µg/mL
Neut IC50 (ug/ml) subtype A [5]: 0.11 µg/mL

B14: ADI-15605 (antibody, V domains shown)
VH: QVQLVQSGPEVKKPGESLKISCKGSGYTFTTYWIGWVRQRPGKGLEWMGIIHPGDSDTRYSPSLQGQVTISVDKSINTAYLQWRSLKASDTGMYYCARFEYGDFGNDFWGQGTLVTVSS
VL: NFMLTQPHSVSESPGKTVTISCSRSSGSIANNYVQWYQQRPGSSPTTVIYEDNQRPSGVPDRFSGSIDSSSNSASLTISGLKTEDEADYYCQSYDSSNHRVFGGGTKLTVL
notes: IgG
Kd [1]: 0.171 nM
Kd [2]: 0.163 nM
Kd [3]: 3.49 nM
Neut IC50 (ug/ml) subtype B [4]: > 10 µg/mL
Neut IC50 (ug/ml) subtype A [5]: > 10 µg/mL
